From article PMC5029901

Biological target: GST-Gag (HIV-1 Gag fused to GST, from pGEX-6P-3/Gag) (HIV-1)
Experiment: SPR

FLAG-TSG101 (Tumor Susceptibility Gene 101) (from UniProt Q99816 1-390) (natural protein)
Kd: 55.2 nM
koff: 0.0223 s⁻¹
kon: 924000 M⁻¹ s⁻¹
